These results are taken from PMC12491506, “Identification of a RAB32-LRMDA-Commander membrane trafficking complex reveals the molecular mechanism of human oculocutaneous albinism type 7” (Nature Communications, 2025).

The target of this experiment is T1, recombinant LRMDA (tag-less) (human, UniProt A0A087WWI0 1-226).
T1 construct: LRMDA, human, full-length, longer isoform (this isoform was used in all experiments); gene synthesised with codon optimisation for S. frugiperda; also called purified LRMDA; HaloTag-TEV-LRMDA after TEV cleavage; source: Sf21 insect cells (baculovirus), purified (HaloLink resin, TEV cleavage); not shown: HaloTag, N-terminal, cleaved
T1 sequence (looked up): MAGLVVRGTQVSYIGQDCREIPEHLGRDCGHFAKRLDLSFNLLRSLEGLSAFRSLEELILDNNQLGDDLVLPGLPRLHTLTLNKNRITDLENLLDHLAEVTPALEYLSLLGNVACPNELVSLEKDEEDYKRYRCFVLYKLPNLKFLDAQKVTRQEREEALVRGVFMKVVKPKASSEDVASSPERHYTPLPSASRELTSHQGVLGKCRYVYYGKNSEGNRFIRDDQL
Kind of experiment: pull-down; 0.5 µM Retriever (His-tagged VPS29) on TALON resin with 1 µM LRMDA and 1 µM RAB32 together; 50 mM HEPES pH 7.2, 150 mM NaCl, 2 mM β-mercaptoethanol, 0.1% Triton X-100; 45 min at 4 °C; washes with 10 mM imidazole. The note with it: both partners purified.

B1: recombinant RAB32 (tag-less) (natural protein, human, UniProt Q13637 1-225, looked up)
chain: MAGGGAGDPGLGAAAAPAPETREHLFKVLVIGELGVGKTSIIKRYVHQLFSQHYRATIGVDFALKVLNWDSRTLVRLQLWDIAGQERFGNMTRVYYKEAVGAFVVFDISRSSTFEAVLKWKSDLDSKVHLPNGSPIPAVLLANKCDQNKDSSQSPSQVDQFCKEHGFAGWFETSAKDNINIEEAARFLVEKILVNHQSFPNEENDVDKIKLDQETLRAENKSQCC
notes: RAB32, human, full-length; also called purified RAB32; GST-TEV-RAB32 after TEV cleavage; source: Sf21 insect cells (baculovirus), purified (Glutathione Sepharose 4b, TEV cleavage); not shown: GST, N-terminal, cleaved
For B1, the binding result is given as “binds”.
